From EP4755393A1, “USE OF PROTON PUMP REGULATOR IN PREPARATION OF DRUG” (Shanghai Quietd Biotechnology Co., Ltd., priority 2023, dated 2025)
Ends that are not written are not given here.

Columns and labels:
HT22 cells = assay: Quantitative detection of ROS (DCFH-DA) in the oxygen-glucose deprivation (OGD) cell model; format: cell-based; settings: Mus musculus, HT-22, OGD 16 h, 24 h reoxygenation, OGD plus vehicle = 100%, mean ± standard deviation, read-out: inhibition rate of ROS
Protocol: Cell culture: Mouse hippocampal HT22 cells were cultured in DMEM and 10% serum at 37°C in a 5% CO2 incubator.
Oxygen-glucose deprivation (OGD) cell model: HT22 cells were seeded at a density of about 1 ×10^5 into 96-well plates and cultured for 24 h in a 37°C incubator with 5% CO2/95% air in DMEM and 10% serum. After placing HT22 cells in glucose-free medium, they were transferred to a sealed container containing a 5% CO2/95% N2 mixture and incubated at 37°C for 16 h. The glucose-free medium was then replaced with a normal medium containing glucose, and the mixture was incubated for 24 h in a 37°C incubator containing 5% CO2/95% air for reoxygenation.
Experimental grouping: Normally cultured HT22 cells were used as the control group. […] After 24 h of reoxygenation, quantitative detection of ROS was performed.
Quantitative detection of ROS: Reactive oxygen species were detected using the Beyotime reactive oxygen species detection kit and the fluorescent probe DCFH-DA. […] Observation was performed under a fluorescence microscope, followed by quantification of the average fluorescence intensity using Image J software.
Data analysis: Three parallel experiments were performed. The average fluorescence intensity of the OGD plus vehicle group was set as the standard value of 100% for normalization of the fluorescence intensity of cells in each group. […]

Male SD rats [1] = assay: TTC staining of infarct volume after MCAO; format: in vivo; settings: 5 mpk, from 3 days prior to surgery once daily plus doses on day of surgery, 24 h after MCAO, vs Model + QD202 placebo, FIG. 17
Description: (§1) Experimental protocol: Male SD rats (260-280 g) were randomly assigned to the following groups: Sham + QD202 placebo group (n=6), Model + QD202 placebo group (n=6), positive control group (Edaravone-5 mpk, n=6), QD202-1 mpk group (n=6), QD202-3 mpk group (n=6), QD202-5 mpk group (n=6). The sham group served as the sham-operated group, while rats in the model group were subjected to Middle Cerebral Artery Occlusion (MCAO) for model establishment. For the edaravone-treated group, administration was initiated 3 days prior to surgery, once daily; on the day of surgery, a total of […] were given (30 min before surgery, 30 min after surgery, and 60 min after surgery). Rats in the QD202 groups received a single dose at 30 min after surgery. At 24 h postoperatively, neurological function was scored according to Table 3. Subsequently, the whole brain tissues of the rats were harvested for TTC staining to evaluate the infarct volume. […]

Male SD rats [2] = assay: Neurological function scoring after MCAO (Middle Cerebral Artery Occlusion); format: in vivo; settings: 5 mpk, from 3 days prior to surgery once daily plus doses on day of surgery; 24 h after MCAO; vs Model + QD202 placebo; FIG. 16
Description: as §1

hATP6V1B2 = hATP6V1B2 (Homo sapiens, UniProt P21281); assay: Co-immunoprecipitation of Myc-tagged hATP6V1B2 with GFP-tagged QD202 and site mutants (HEK 293 lysates, western blot); format: binding; settings: expressed from pEGFP-N3 plasmids in HEK 293, anti-GFP IP, FIG. 7A, 7B
hATP6V1B2, sequence (P21281 whole entry): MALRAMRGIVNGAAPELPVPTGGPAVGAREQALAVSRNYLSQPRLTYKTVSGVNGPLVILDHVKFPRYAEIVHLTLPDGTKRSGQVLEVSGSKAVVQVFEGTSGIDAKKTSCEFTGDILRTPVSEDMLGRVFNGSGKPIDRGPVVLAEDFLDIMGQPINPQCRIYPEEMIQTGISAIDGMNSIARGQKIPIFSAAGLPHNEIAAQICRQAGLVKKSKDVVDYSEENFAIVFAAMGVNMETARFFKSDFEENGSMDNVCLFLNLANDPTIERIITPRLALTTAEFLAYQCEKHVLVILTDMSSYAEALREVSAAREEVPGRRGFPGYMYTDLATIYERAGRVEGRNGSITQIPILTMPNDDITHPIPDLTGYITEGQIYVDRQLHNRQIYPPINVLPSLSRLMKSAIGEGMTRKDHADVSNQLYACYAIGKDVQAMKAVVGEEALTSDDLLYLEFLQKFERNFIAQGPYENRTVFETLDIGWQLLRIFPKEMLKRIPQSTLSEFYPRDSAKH
Protocol: Expression plasmids of hATP6V1B2, QD202, site-mutated QD202(D15A), site-mutated QD202(V16A), site-mutated QD202(P13A), and site-mutated QD202(V14A) were constructed respectively. The hATP6V1B2 was co-transfected into HEK 293 cells with the expression plasmids of QD202, site-mutated QD202(D15A), site-mutated QD202(V16A), site-mutated QD202(P13A) and site-mutated QD202(V14A), respectively, and cellular proteins were extracted 48 h after transfection. Table 1: Plasmid sequences
Protein extraction was performed using Pierce RIPA lysis buffer. Taking cells in a 60 mm culture dish as an example, 500 µL of Pierce RIPA lysis buffer containing protease inhibitors was added. Cells were collected and transferred to a clean 1.5 mL EP tube using a cell scraper. After mixing for 1 h on a rotary mixer at 4°C, the cells were centrifuged at 13,000 rpm at 4°C for 10 min to remove cell debris. The hATP6V1B2 was equally divided into […], which were then mixed separately with the cell lysates transfected with QD202, site-mutated QD202(P13A), site-mutated QD202(V14A), site-mutated QD202(D15A), and site-mutated QD202(V16A), 30 µL of the supernatant was taken and mixed with 10 µL of 4× loading buffer, followed by boiling at 100°C for 5 min and storage at -20°C; 2 µL of the antibody (Anti-GFP, Roche, 11814460001) was added to the remaining 470 µL of the protein lysate, and the mixture was incubated overnight (about 16-18 h) on a rotary shaker at 4°C. 30 µL of Protein G Sepharose beads (Roche, 11243233001) were placed in an EP tube and washed three times with Pierce RIPA lysis buffer to eliminate interference from the original stock solution. The protein that had been incubated with the antibody overnight was added to the Sepharose beads, followed by mixing and incubation at 4°C for 2 h to ensure sufficient binding between the antibody and the protein. The mixture was centrifuged at 4000 rpm for 1 min. The supernatant was aspirated off, followed by the addition of 600 µL of Pierce RIPA lysis buffer. The tube was gently inverted, followed by centrifugation to collect the supernatant. The above steps were repeated three times to wash away non-specifically bound proteins. Finally, 30 µL of 1×loading buffer was added, the mixture was mixed well, heated at 60°C for 20 min to denature the protein, and then stored at -20°C. The protein was examined by western blot (Myc-Tag (9B11) Mouse mAb, CST, 2276S; Anti-GFP, Roche, 11814460001).
The hATP6V1B2 was co-transfected into the host cell line HEK 293 with the expression plasmids of QD202, site-mutated QD202(P13A), site-mutated QD202(V14A), site-mutated QD202(D15A) and site-mutated QD202(V16A), respectively. […] It is therefore hypothesized that valine at position 16 of QD202 is one of the key amino acids for the binding between hATP6V1B2 and QD202, whereas proline at position 13, valine at position 14 and aspartic acid at position 15 can be replaced with alanine, as illustrated in FIG. 7A and FIG. 7B.

Molecule: CC1=NN(c2ccccc2)C(=O)C1 [Edaravone]
- inhibition at 200 µM (HT22 cells): 63.8 ± 10.9%
- infarct volume (Male SD rats [1]): significantly lower than that of the Model + QD202 placebo group, with a statistically significant difference (p<0.01)
- neurobehavioral score (Male SD rats [2]): significantly lower than that of the Model + QD202 placebo group with a statistically significant difference (p<0.01)

Molecule: QD202(D15A): QD202 in which aspartic acid at position 15 was substituted with alanine; expressed from pEGFP-N3 plasmid (YGRKKRRQRRRSPVAVVCS; left off: large carriers)
- binding to Myc-tagged hATP6V1B2 (co-immunoprecipitation) (hATP6V1B2): also bind to

Molecule: QD202(P13A): QD202 in which proline at position 13 was substituted with alanine; expressed from pEGFP-N3 plasmid (YGRKKRRQRRRSAVDVVCS; not fully specified)
- binding to Myc-tagged hATP6V1B2 (co-immunoprecipitation) (hATP6V1B2): also bind to

Molecule: QD202(V14A): QD202 in which valine at position 14 was substituted with alanine; expressed from pEGFP-N3 plasmid (YGRKKRRQRRRSPADVVCS; not fully specified)
- binding to Myc-tagged hATP6V1B2 (co-immunoprecipitation) (hATP6V1B2): also bind to

Molecule: QD202(V16A): QD202 in which valine at position 16 was substituted with alanine; expressed from pEGFP-N3 plasmid (YGRKKRRQRRRSPVDAVCS; not fully specified)
- binding to Myc-tagged hATP6V1B2 (co-immunoprecipitation) (hATP6V1B2): significantly reduced
